{"source": "paper PMC4829898", "molecular_target": "recombinant soluble trimeric hemagglutinin (triHA) (influenza A virus A/Belgium/2009 (H1N1, 2009 pandemic) | Saccharomyces cerevisiae)", "test": "SEC"}
{"substance": "recombinant soluble trimeric hemagglutinin (triHA)", "values": [{"measurement": "stoichiometry N", "result": 3}]}
